Data set [1] concerns the molecule itself. Kind of data set: crystal structure; open DNA-gate form of the hTop2β^core-DNA cleavage complex, space group P3_(2)21, one subunit in the asymmetric unit, homodimer built by the crystallographic twofold axis; 2.75 Å (5ZEN) and 3.87 Å with iodine-labelled DNA (5ZQF); MnCl2 in the sample buffer, reservoir pH 5.8, 4 °C.
In data set [2] the target is T1, hTop2βcore (DNA-binding and cleavage core of human topoisomerase 2β) (human, UniProt Q02880-2 445-1201). Kind of data set: X-ray crystallography (3.87 Å); open DNA-gate cleavage complex; Mn2+ (2 mM MnCl2), Mg acetate; etoposide or doxorubicin in crystallization mix, refined as binary complex; Crystallization: 5 mg/mL (~28 uM) protein, ~34 uM duplex, 2 mM etoposide or doxorubicin, 30 mM Tris-HCl pH 7.0, 70 mM NaCl, 2 mM MnCl2 (MgCl2 for P21), 1 mM EDTA, 2 mM β-mercaptoethanol; reservoir 100 mM Mg acetate, 50 mM MES pH 5.8 (5.6 for P21), …. Particulars: protein: recombinant; chain copies: 2; blunt; self-complementary, 2 copies; cleaved with 4-nt stagger in the complex.

Data set [3] concerns the target T1, hTop2βcore (DNA-binding and cleavage …). The experiment in a line: X-ray crystallography (2.75 Å); open DNA-gate cleavage complex; Mn2+ (2 mM MnCl2), Mg acetate; etoposide or doxorubicin in crystallization mix, refined as binary complex; Crystallization: 5 mg/mL (~28 uM) protein, ~34 uM duplex, 2 mM etoposide or doxorubicin, 30 mM Tris-HCl pH 7.0, 70 mM NaCl, 2 mM MnCl2 (MgCl2 for P21), 1 mM EDTA, 2 mM β-mercaptoethanol; reservoir 100 mM Mg acetate, 50 mM MES pH 5.8 (5.6 for P21), …. The following applies: protein: recombinant; chain copies: 2; blunt; self-complementary, 2 copies of S1; cleaved with 4-nt stagger in the complex.

B1: DNA-binding and cleavage core of human topoisomerase 2β (hTop2β^core), in the covalent cleavage complex with a 20-bp duplex DNA (domain or fragment, UniProt Q02880-2 445-1201, looked up)
chain: SVKYSKIKGIPKLDDANDAGGKHSLECTLILTEGDSAKSLAVSGLGVIGRDRYGVFPLRGKILNVREASHKQIMENAEINNIIKIVGLQYKKSYDDAESLKTLRYGKIMIMTDQDQDGSHIKGLLINFIHHNWPSLLKHGFLEEFITPIVKASKNKQELSFYSIPEFDEWKKHIENQKAWKIKYYKGLGTSTAKEAKEYFADMERHRILFRYAGPEDDAAITLAFSKKKIDDRKEWLTNFMEDRRQRRLHGLPEQFLYGTATKHLTYNDFINKELILFSNSDNERSIPSLVDGFKPGQRKVLFTCFKRNDKREVKVAQLAGSVAEMSAYHHGEQALMMTIVNLAQNFVGSNNINLLQPIGQFGTRLHGGKDAASPRYIFTMLSTLARLLFPAVDDNLLKFLYDDNQRVEPEWYIPIIPMVLINGAEGIGTGWACKLPNYDAREIVNNVRRMLDGLDPHPMLPNYKNFKGTIQELGQNQYAVSGEIFVVDRNTVEITELPVRTWTQVYKEQVLEPMLNGTDKTPALISDYKEYHTDTTVKFVVKMTEEKLAQAEAAGLHKVFKLQTTLTCNSMVLFDHMGCLKKYETVQDILKEFFDLRLSYYGLRKEWLVGMLGAESTKLNNQARFILEKIQGKITIENRSKKDLIQMLVQRGYESDPVKAWKEAQEKAAEEDETQNQHDDSSSDSGTPSGPDFNYILNMSLWSLTKEKVEELIKQRDAKGREVNDLKRKSPSDLWKEDLAAFVEELDKVESQERED
modifications: catalytic tyrosine (Tyr821) joined to the 5′-phosphate of the cleaved G-segment DNA by a phosphotyrosyl linkage
notes: Not seen in 5ZEN chain A: 445-451, 597-602, 616-624, 703-706, 1112-1134; the His tag is surmised from the Ni-NTA step; also called hTop2^core; Top2 cleavage complex; source: E. coli BL21 (DE3) Star-pLysS, purified (Ni-NTA, heparin, Superdex 200)
Take B1: in data set [1], the binding result is “binds”.

B2: 20-bp G-segment duplex, 5-iododeoxyuridine labeled (DNAI) (dsDNA)
DNA 1: AGCCGAGCUGCAGCUCGGCU
DNA 2: AGCCGAGCUGCAGCUCGGCU
modifications: 5-iodo-2'-deoxyuridine replaces all thymidines (positions 9, 15, 20 of each strand); U denotes iododeoxyuridine, DNA backbone
As for B2, the binding result in data set [2] is listed as “binds”.

B3: 20-bp G-segment duplex (native) (dsDNA)
DNA 1: AGCCGAGCTGCAGCTCGGCT
DNA 2: AGCCGAGCTGCAGCTCGGCT
As for B3, the binding result in data set [3] is listed as “binds”.
